Source: paper PMC3673099

What was measured:
[1] = target: CyPet-(pre-SUMO2)-YPet (human) (UniProt P61956)
[2] = target: CyPet-(pre-SUMO1)-YPet (human) (UniProt P63165)
[3] = target: CyPet-(pre-SUMO3)-YPet (human) (UniProt P55854)
Chain of UniProt P55854 (P55854 1-92): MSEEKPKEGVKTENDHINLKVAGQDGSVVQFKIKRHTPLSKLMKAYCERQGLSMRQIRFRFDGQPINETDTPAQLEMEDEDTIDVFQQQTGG

Chain of UniProt P63165 (P63165 1-97): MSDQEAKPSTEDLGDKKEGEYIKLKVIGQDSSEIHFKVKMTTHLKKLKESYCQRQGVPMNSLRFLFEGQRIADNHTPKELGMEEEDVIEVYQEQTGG
Chain of UniProt P61956 (P61956 whole entry): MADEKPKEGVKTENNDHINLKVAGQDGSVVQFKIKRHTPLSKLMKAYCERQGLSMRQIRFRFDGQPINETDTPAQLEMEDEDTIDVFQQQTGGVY

catalytic domain of SENP1 (enzyme) showed a Km of the SENP1 catalytic domain for CyPet-(pre-SUMO2)-YPet, FRET-based protease assay, Michaelis-Menten fit, real-time detection (internal calibration) [1] of 0.17 µM, a Km of the SENP1 catalytic domain for CyPet-(pre-SUMO2)-YPet, FRET-based protease assay, Michaelis-Menten fit, standard curve analysis [1] of 0.17 µM and a Km of the SENP1 catalytic domain for CyPet-(pre-SUMO1)-YPet, FRET-based protease assay, Michaelis-Menten fit, real-time detection (internal calibration) [2] of 0.14 µM. For the same substance, the Km of the SENP1 catalytic domain for CyPet-(pre-SUMO1)-YPet, FRET-based protease assay, Michaelis-Menten fit, standard curve analysis [2] was 0.18 µM, the Km of the SENP1 catalytic domain for CyPet-(pre-SUMO3)-YPet, FRET-based protease assay, Michaelis-Menten fit, real-time detection (internal calibration) [3] was 1.99 µM and the Km of the SENP1 catalytic domain for CyPet-(pre-SUMO3)-YPet, FRET-based protease assay, Michaelis-Menten fit, standard curve analysis [3] was 3.75 µM.
